In general, Kd refers to a measure of binding affinity in units of concentration. The term IC50 denotes the point on the concentration scale where inhibition reaches its midpoint. Read a low IC50 as greater potency in that assay. By EC50 is commonly meant the concentration giving half of the maximal effect. A high value points to a less potent agent.

The target of assay [1] is SIRPα protein (Acrobiosystems, Cat. No. SIA-H5225), V1 genotype (human) (UniProt P78324). Nature of the assay: BLI (Octet Red96), SIRPα captured on H1S1K biosensor, antibody as analyte, 1:1 fit. For orientation: In BLI a coated tip is dipped into the sample, and binding shifts an interference pattern.
Assay [2] has as its target T1, biotin-labeled SIRPα (Acrobiosystems, Cat. No. CDA-H82F2), V1 genotype (human, UniProt P78324 31-370, biotin-labeled (site not stated)).
T1 construct: Bought protein; also called SIRPα (V1)
Nature of the assay: competition ELISA (FIG. 4B), blocking of biotin-labeled SIRPα (V1) binding to coated CD47-Fc. In general terms: An ELISA detects its analyte on a solid surface through an enzyme-linked reagent.

The target of assay [3] is T1, biotin-labeled SIRPα (Acrobiosystems, …). Nature of the assay: competition ELISA, blocking of biotin-labeled SIRPα binding to coated CD47-Fc (competitor CD47-Fc). The procedure:
(§1) 96-well plates were coated with CD47-Fc (manufacturer: Acrobiosystems, Cat. No. CD7-H5256) at 4° C. overnight. Plates were washed and blocked with 1% BSA-PBST blocking solution. […] After a 1 h incubation at 37° C., plates were washed and HRP-labeled streptavidin (manufacturer: Abcam, Cat. No.: ab7403) was added. After a 0.5 h incubation at 37° C., plates were washed and TMB solution was added. After a 0.5 h incubation at room temperature in the dark, the reaction was terminated by adding 2 N H₂SO₄. Absorbance was read at 450 nm on a microplate reader. IgG (manufacturer: GenScript) was used as the control.

The target in assay [4] is T2, SIRPα protein (Acrobiosystems, Cat. No. SIA-H5225), V1 genotype (human, UniProt P78324 31-370).
T2 construct: Bought protein; also called recombinant SIRPα protein; antigen SIRPα
Nature of the assay: ELISA, coated SIRPα (SIA-H5225). As for the experimental part:
The plates were then blocked with 1% BSA-PBS blocking solution for 1 h at 37° C. Plates were washed with PBST. The humanized antibodies were diluted to different concentrations (3-fold serially diluted from 66.7 nM, 11 concentration gradients in total) and added to the plates. After a 1 h incubation at 37° C., plates were washed and HRP-labeled goat anti-human IgG (manufacturer: Abcam, Cat. No. Ab98595, 1:10000 dilution) was added. After a 0.5 h incubation at 37° C., plates were washed and TMB solution was added. After a 5 min incubation at room temperature in the dark, the reaction was terminated by adding 2 N H₂SO₄. Absorbance was read at 450 nm on a microplate reader.

For assay [5], the target named is membrane SIRPα on THP-1 cells (human myeloid leukemia monocytes endogenously expressing SIRPα) (human) (UniProt P78324). Nature of the assay: cell-based or functional assay.
Assay [6] concerns the target biotin-labeled SIRPα (V8) (Acrobiosystems, Cat. No. SI8-H82W6) (human, UniProt P78324 31-370, biotin-labeled (site not stated)). Nature of the assay: competition ELISA (FIG. 4D), blocking of biotin-labeled SIRPα (V8) binding to coated CD47-Fc. The procedure:
as §1
(§2) The antibodies were 3-fold serially diluted from 200 nM and a total of nine concentration gradients were prepared.

Assay [7] concerns the target biotin-labeled SIRPα (V2) (Acrobiosystems, Cat. No. SI2-H82W8) (human, UniProt P78324 31-370, biotin-labeled (site not stated)). Nature of the assay: competition ELISA (FIG. 4C), blocking of biotin-labeled SIRPα (V2) binding to coated CD47-Fc. The procedure:
as §1, §2

Assay [8] concerns the target T1, biotin-labeled SIRPα (Acrobiosystems, …). Nature of the assay: competition ELISA (FIG. 4A), blocking of biotin-labeled SIRPα (V1) binding to coated CD47-Fc; FIG. 4A, run beside KWAR23. As for the experimental part:
as §1
(§3) The antibodies were 2-fold serially diluted from 83.4 nM and a total of nine concentration gradients were prepared.

Assay [9] has the same target. Nature of the assay: competition ELISA (FIG. 4B), blocking of biotin-labeled SIRPα (V1) binding to coated CD47-Fc; FIG. 4B, run beside 18D5 and 1H9. The procedure: as §1, §3
Assay [10] deals with T2, SIRPα protein (Acrobiosystems, Cat. No. …). Nature of the assay: BLI (Octet Red96), SIRPα captured on H1S1K biosensor, antibody as analyte, 1:1 fit.

KWAR23 (antibody) gave a Kd in [1] of 0.0509 nM. This counts as picomolar.

B1: 18D5 (antibody, V domains shown)
VH: QVQLQQPGAELVRPGSSVKLSCKASGYTFTSYWVHWVKQRPIQGLEWIGNIDPSDSDTHYNQKFKDKASLTVDKSSSTAYMQLSSLTFEDSAVYYCVRGGTGTMAWFAYWGQGTLVTVSA
VL: DVVMTQTPLSLPVSLGDQASISCRSSQSLVHSYGNTYLYWYLQKPGQSPKLLIYRVSNRFSGVPDRFSGSGSGTDFTLKISRVEAEDLGVYFCFQGTHVPYTFGSGTKLEIK
As to B1, in assay [2], the IC50 is 4.1 nM. That is a single-digit nanomolar value.

B2: #13 antibody (humanized anti-SIRPα antibody) (antibody, V domains shown)
VH: QVQLVQSGSELKKPGASVKVSCKASGYTFTDYSIHWVRQAPGQGLEWMGWINTETGEPTYADDFKGRFVFSLDTSVSTAYLQICSLKAEDTAVYYCSRGPLYRYDGYGLEYWGQGTLVTVSS
VL: DIVMTQSPDSLAVSLGERATINCKASQSVSNDVAWYQQKPGQPPKLLIYYASNRCTGVPDRFSGSGSGTDFTLTISSLQAEDVAVYYCHQDYISPYTFGGGTKLEIK
notes: Full antibody as tested
For B2, the IC50 in assay [3] turned out to be 1.5 nM. In [4], this molecule gave an EC50 of 0.952 nM.

B3: 1H9 (antibody, V domains shown)
VH: QVQLQQPGAERVKPGASVKMSCKASGYTFTSYWITWVKQRPGQGLEWIGDIYPGSGSTNHIEKFKSKATLTVDTSSNTAYMQLSRLTSEDSAVYYCATGYGSSYGYFDYWGQGTTLTVSS
VL: DIQMTQSPASLSASVGETVTITCRASENIYSYLAWYQQKQGKSPQLLVYTAKTLAEGVPSRFSGSGSGTQFSLKINSLQPEDFGNYYCQHQYGPPFTFGSGTRLVIK
Regarding B3, the IC50 in [2] worked out at 4.2 nM.

B4: KWAR23 (antibody, V domains shown)
VH: EVQLQQSGAELVKPGASVKLSCTASGFNIKDYYIHWVQQRTEQGLEWIGRIDPEDGETKYAPKFQDKATITADTSSNTAYLHLSSLTSEDTAVYYCARWGAYWGQGTLVTVSS
VL: QIVLTQSPAIMSASPGEKVTLTCSASSSVSSSYLYWYQQKPGSSPKLWIYSTSNLASGVPARFSGSGSGTSYSLTISSMEAEDAASYFCHQWSSYPRTFGAGTKLELK
In turn, B4 gave an Endocytosis rate (%) in assay [5] of 34.7%. The IC50 turned out to be 10.8 nM in assay [6] and 6.4 nM in [7].

B5: #11 antibody (humanized anti-SIRPα antibody) (antibody, V domains shown)
VH: QVTLKESGPVLVKPTETLTLTCTVSGFSLSSHGVHWIRQPPGKALEWLAVIWSDGSTTYNSTLKSRLTISKDTSKSQVVLTMTNMDPVDTATYYCARHGNYHYNMDYWGQGTLVTVSS
VL: DIQLTQSPSFLSASVGDRVTITCRTSSRVNSGYLHWYQQKPGKAPKLLIYSTSTLASGVPSRFSGSGSGTEFTLTISSLQPEDFATYYCQQYSSYPWTFGGGTKLEIK
notes: Full antibody as tested
On to B5, for which the IC50 in assay [3] was determined as 0.209 nM. Moreover, the EC50 in assay [4] was 0.464 nM.

B6: #14 antibody (humanized anti-SIRPα antibody) (antibody, human IgG1, kappa, N297A, V domains shown)
VH: QVQLQESGPGLVKPSQTLSLTCTVSGGSISSGYYWSWIRQHPGKGLEWIGYISYDGSRYNNPSLKNRVTISVDTSKNQFSLKLSSVTAADTAVYYCAREEYANYFAYWGQGTTVTVSS
VL: DIVMTQSPDSLAVSLGERATINCKSSQSLFYSSNQKNFLAWYQQKPGQPPKLLIYWASTRESGVPDRFTGSGSGTDFTLTISSVKAEDLAVYYCQQYYSYPPTFGQGTKLEIKR
For B6, the IC50 is 0.132 nM in assay [3]; 3.4 nM in assay [8]; 11.5 nM in assay [6]; 4.4 nM in assay [9]; 7.8 nM in [7]. This molecule also registered an EC50 in [4] of 0.683 nM. In assay [10], this molecule displayed a Kd of 0.0217 nM.

B7: #4 antibody (humanized anti-SIRPα antibody) (antibody, V domains shown)
VH: EVQLVQSGAEVKKPGATVKISCRGSGFNIKDYYIQWVQQAPGKGLEWMGWIDPENGDTKYAPKFQGRVTITADTSTDTAYMELSSLRSEDTAVYYCYAKGPYWGQGTTLTVSS
VL: DIVMTQSPDSLAVSLGERATINCKSSQSLFYSSNQKNFLAWYQQKPGQPPKLLIYWASTRESGVPDRFTGSGSGTDFTLTISSVKAEDLAVYYCQQYYSYPPTFGGGTKLEIK
notes: Full antibody as tested
For B7, in [3], the IC50 is 6.03 nM. This molecule also showed a concentration for a half-maximal effect (EC50) in assay [4] of 1.83 nM.

The values above are taken from US20240034804A1 (BIORAY PHARMACEUTICAL, published 2024).
